pKd: −log10 of the molar value.
Key:
Assay in all cases: SPR
[1] = molecular target: human uracil DNA glycosylase (human UDG) (human) (UniProt P13051)
[2] = molecular target: Mycobacterium tuberculosis uracil DNA glycosylase (TBUDG) (Mycobacterium tuberculosis) (UniProt P9WFQ9)
[3] = molecular target: Epstein-Barr virus (human herpesvirus 4) uracil DNA glycosylase (EBVUDG) (Epstein-Barr virus (EBV; human herpesvirus 4)) (UniProt P12888)

| Substance | pKd [1] | koff [1] [s⁻¹] | kon [1] [M⁻¹ s⁻¹] | pKd [2] | ka1 (two-state model, step 1) [2] [M⁻¹ s⁻¹] | ka2 (two-state model, step 2) [2] [M⁻¹ s⁻¹] | kd1 (two-state model, step 1) [2] [s⁻¹] | pKd [3] | koff [3] [s⁻¹] | kon [3] [M⁻¹ s⁻¹] |
| --- | --- | --- | --- | --- | --- | --- | --- | --- | --- | --- |
| Staphylococcus aureus uracil-DNA glycosylase inhibitor SAUGI (natural protein) | 8.71 | 0.00361 | 1.85e+06 | 6.70 | 4.32e+06 | 20 | 1.39 | 9.32 | 0.0012 | 2.54e+06 |
| SAUGI E24AQ52R (natural protein) | 8.48 | 0.00529 | 1.6e+06 |  |  |  |  |  |  |  |

From paper PMC4872100
